The values that follow come from patent US20240010747A1, “ANTI-MRP4 (ENCODED BY ABCC4 GENE) ANTIBODIES AND USES THEREOF” (Kenjockety Biotechnology, Inc., priority 2020, published 2024).

Assay [1] concerns the target T1, human ABCC4 (Homo sapiens, UniProt O15439).
T1 construct: expressed in transfected cells
T1 sequence (O15439 1-1325): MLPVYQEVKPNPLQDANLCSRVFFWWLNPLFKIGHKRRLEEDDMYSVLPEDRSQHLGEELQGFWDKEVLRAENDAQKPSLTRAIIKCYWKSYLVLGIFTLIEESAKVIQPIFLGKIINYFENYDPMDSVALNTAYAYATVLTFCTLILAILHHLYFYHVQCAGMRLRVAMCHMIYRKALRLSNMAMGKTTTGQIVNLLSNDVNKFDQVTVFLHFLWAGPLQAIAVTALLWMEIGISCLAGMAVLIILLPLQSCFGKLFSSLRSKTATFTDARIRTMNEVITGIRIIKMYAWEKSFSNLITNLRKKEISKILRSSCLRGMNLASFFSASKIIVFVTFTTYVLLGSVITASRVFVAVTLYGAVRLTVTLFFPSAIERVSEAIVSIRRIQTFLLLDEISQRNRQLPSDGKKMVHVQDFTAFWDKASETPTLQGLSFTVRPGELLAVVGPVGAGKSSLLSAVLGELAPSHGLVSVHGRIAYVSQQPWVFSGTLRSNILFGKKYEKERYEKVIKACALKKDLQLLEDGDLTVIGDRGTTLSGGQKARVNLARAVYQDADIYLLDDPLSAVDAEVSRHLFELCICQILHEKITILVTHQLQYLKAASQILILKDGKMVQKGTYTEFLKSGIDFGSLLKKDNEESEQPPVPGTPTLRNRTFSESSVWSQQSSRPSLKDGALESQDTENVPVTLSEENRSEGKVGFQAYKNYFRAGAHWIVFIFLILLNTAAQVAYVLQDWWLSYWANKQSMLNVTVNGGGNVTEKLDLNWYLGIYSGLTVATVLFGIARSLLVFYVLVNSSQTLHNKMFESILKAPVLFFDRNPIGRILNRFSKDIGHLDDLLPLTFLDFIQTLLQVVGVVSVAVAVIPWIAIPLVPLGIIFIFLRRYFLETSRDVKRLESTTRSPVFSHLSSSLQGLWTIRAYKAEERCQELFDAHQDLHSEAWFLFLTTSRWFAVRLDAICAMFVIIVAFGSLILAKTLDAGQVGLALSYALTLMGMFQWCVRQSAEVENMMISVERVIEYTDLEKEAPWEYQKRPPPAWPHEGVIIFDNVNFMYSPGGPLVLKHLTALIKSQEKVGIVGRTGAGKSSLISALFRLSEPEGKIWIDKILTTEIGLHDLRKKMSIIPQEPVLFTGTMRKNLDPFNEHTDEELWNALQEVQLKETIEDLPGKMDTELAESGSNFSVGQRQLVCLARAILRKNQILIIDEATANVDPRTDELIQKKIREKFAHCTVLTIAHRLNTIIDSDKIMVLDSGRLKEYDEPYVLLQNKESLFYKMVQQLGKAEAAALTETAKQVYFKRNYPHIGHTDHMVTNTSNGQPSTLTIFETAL
As to the kind of experiment: Flow cytometry (FACS) binding to C6 cells stably transfected to express human ABCC4 (Table 3 study). The conditions noted are these: C6 cells stably transfected to express human ABCC4, FACS; Table 3. The protocol:
(§1) Binding titration of recombinant antibodies to ABCC4 transfectants was performed by serial dilution of antibodies from about 666 nM. Diluted antibody in flow cytometry buffer was incubated with cells on ice for 30 min. After 2 washes with flow cytometry buffer, bound antibody was detected with PE-labeled F(ab′)2 fragment goat anti-human IgG (Jackson ImmunoResearch) diluted 1:200 in flow cytometry buffer and incubated with cells for 20 min on ice. After 2 washes with flow cytometry buffer fluorescence was measured on an Attune N×T flow cytometer. Data were analyzed with GraphPad Prism 8.0 software to determine EC50's.
(§2) Human embryonic kidney HEK 293T cells and murine C6 (ATCC CCL-107) were transfected with human or cynomolgus ABCC4 cDNA with C-terminal fused FLAG tag in a pMONO-hygro vector with Lipofectamine 3000 (Invitrogen #L3000001). The cells were treated with 0.2 mg/ml and 0.5 mg/ml hygromycin respectively for about 2 weeks while cultivated in DMEM and 10% FBS with 0.2 mg/ml hygromycin and 0.5 mg/ml hygromycin, respectively. The cells were washed with PBS, and stained with […] of anti-FLAG-PE after fixing and permeablization. Clones expressing ABCC4 were single-cell sorted into 200 μl DMEM with 10% FBS using a BD Aria FACS machine and cultivated in 96 well plates using standard techniques in an incubator at 37° C. and 5% CO 2. Two weeks later clones expressing high levels of ABCC4 were screened and amplified.
(§3) Antibody binding to cells was evaluated by flow cytometry. Murine C6 cells stably transfected to express human or cynomolgus ABCC4 were washed once in flow cytometry buffer (PBS+2% FBS+0.02% sodium azide), resuspended at 2×10^6 cells/mL in flow cytometry buffer, and dispensed into 96-well microtiter plates at 0.1 mL/well. Recombinant antibodies were added to cells at 5 ug/mL for initial binding confirmation, or serially diluted from 100 ug/mL in flow cytometry buffer. After incubating cells on ice for 30 min, cells were washed twice with flow cytometry buffer. Bound antibody was detected with PE-labeled F(ab′)2 fragment goat anti-human IgG (Jackson ImmunoResearch) and evaluated on an Attune N×T flow cytometer. EC50 is calculated to be the concentration of antibody that gives half maximal response.
(§4) Table 3 lists the following characteristics of the rat anti-ABCC4 antibodies tested: binding to C6 cells stably transfected to express human ABCC4 measured by FACS and binding to C6 cells stably transfected to express cynomolgus ABCC4 measured by FACS. Negative (−) is defined as maximum response (Rmax(MFI)) below background level. Positive (+) is defined as MFI>1000.
Background: Flow cytometry measures light scatter and fluorescence of single cells or particles in a stream.

Assay [2] deals with cynomolgus ABCC4. As to the kind of experiment: Flow cytometry (FACS) binding to C6 cells stably transfected to express cynomolgus ABCC4 (Table 3 study). Further details: key to Cynomolgus ABCC4 binding: Negative (−) is defined as maximum response (Rmax(MFI)) below background level; Positive (+) is defined as MFI>1000. Particulars: C6 cells stably transfected to express cynomolgus ABCC4, FACS; Table 3. The protocol:
as §1, §2, §3, §4

Assay [3] concerns the target T1, human ABCC4. As to the kind of experiment: Flow cytometry (FACS) binding to C6 cells stably transfected to express human ABCC4 (different experiment, Table 4). The conditions noted are these: for Human ABCC4 binding: C6 cells stably transfected to express human ABCC4, FACS, different experiment, Table 4; for binding to human ABCC4 expressed on cell surface: Table 4 study, stated in words. The essentials:
(§5)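 Murine C6 cells stably expressing FLAG-tagged human or cynomolgus ABCC4 incubated 30 min on ice with antibodies, either 5 ug/mL or serially diluted from 100 ug/mL, in PBS+2% FBS+0.02% azide. Detection with PE anti-human IgG F(ab′)2 by flow cytometry; EC50 at half-maximal MFI; negative below background, positive >3× background.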

In assay [4] the test system is cynomolgus ABCC4. As to the kind of experiment: Flow cytometry (FACS) binding to C6 cells stably transfected to express cynomolgus ABCC4 (different experiment, different C6.cC4 cell line, Table 4). Further details: key to Cynomolgus ABCC4 binding: Negative (−)=Rmax (MFI) below background level; Positive (+)=MFI>3× background level. The conditions noted are these: for binding to cynomolgus ABCC4 expressed on cell surface: Table 4 study, stated in words; for Cynomolgus ABCC4 binding: different C6.cC4 cell line, C6 cells stably transfected to express cynomolgus ABCC4, FACS, Table 4. The essentials: as §5

B1: C4.953: anti-ABCC4 antibody raised in rats; VH SEQ ID NO: 6, VL SEQ ID NO: 129 (antibody, V domains shown)
VH: QVTLKESGPGILQPSQTLSLTCTFSGFSLSTYGMGVGWIRQPSGKALEWLANIWWDDDKSYNPSLKNRLTISKGTSNNQAFLKITSVDTADSATYHCARIGSGNSEFDYWGQGVMVTVSS
VL: DVVLTQSPSSLSASLGDRVTITCRASQDIGNYLTWFQQKPGKSPRRMIYGATNLAAGVPSRFSGSRSGSDYSLTISSLESEDVADYHCLQSIQYPFTFGSGTKLEIK
Regarding B1, the “Human ABCC4 binding” value in assay [1] is “+ (Positive (+) is defined as MFI>1000)”; in assay [3] it was “+ (Positive (+)=MFI>3× background level)”. The “Cynomolgus ABCC4 binding” value was “−” in assay [2] and “+ (Positive (+)=MFI>3× background level)” in assay [4]. In addition, the “binding to human ABCC4 expressed on cell surface” value in assay [3] was “bind to both human and cynomolgus ABCC4”. Further, in assay [4], the “binding to cynomolgus ABCC4 expressed on cell surface” value was “bind to both human and cynomolgus ABCC4”.

B2: C4.985: anti-ABCC4 antibody raised in rats; VH SEQ ID NO: 14, VL SEQ ID NO: 134 (antibody, V domains shown)
VH: EVQLVESGGGLVQPGRSLKLSCTASGFTFNKNWMAWIRQAPGKGLEWVASITNTGGNTYYPDSVKGRFTVSRDQTISTLYLQMNSLRSEDTATYFCTRERIGSGYYVMDAWGRGASVTVSS
VL: DTVLTQSPALTVSPGERVTISCRASESVTSFMNWYQQKPGQQPKLLIYLASDLESGVPARFSGSGSGADFTLTIDPVEADDTATYYCQQSWIDPPTFGTGTKLELK
Regarding B2, the “Human ABCC4 binding” value is “+ (Positive (+) is defined as MFI>1000)” in assay [1] and “+ (Positive (+)=MFI>3× background level)” in assay [3]. The “Cynomolgus ABCC4 binding” value in assay [2] and in assay [4] was “−” each time.

B3: C4.972: anti-ABCC4 antibody raised in rats; VH SEQ ID NO: 11, VL SEQ ID NO: 132 (antibody, V domains shown)
VH: EVQLKESGPGLVQPSETLSLTCTVSGFSLTSYNVHWVRQPPGKGLEWMGVMWSGGSTDYSSALKSRLSISRDTSKNQVFLKMNSLQSEDTTTYYCARDRGGYYYDGYPHDFVYWGQGVMVTVSS
VL: EIVIIQSPALAVSLGQRATISCKTNQNVDYYGNSYIHWYQQKPGQQPKLLIYLASNLASGIPARFSGRGSGTDFTLTIDPVEADDPATYYCQQSRNLPFTFGSGTKLELK
For B3, the “Human ABCC4 binding” value in assay [1] was “+ (Positive (+) is defined as MFI>1000)”; in assay [3] it was “+ (Positive (+)=MFI>3× background level)”. Besides, the entries for the “Cynomolgus ABCC4 binding” value in assay [2] and in assay [4] were “−” and “+ (Positive (+)=MFI>3× background level)”, respectively. In addition, in assay [3], the “binding to human ABCC4 expressed on cell surface” value was “bind to both human and cynomolgus ABCC4”. Moreover, in assay [4], the “binding to cynomolgus ABCC4 expressed on cell surface” value is “bind to both human and cynomolgus ABCC4”.

B4: C4.991: anti-ABCC4 antibody raised in rats; VH SEQ ID NO: 16, VL SEQ ID NO: 136 (antibody, V domains shown)
VH: EVKLVESGGGLVQPGRSLQVSCVASGFIFTDYYMAWVRQAPTKGLEWVAYINYDGGSTYYGDSVKGRFTISRDNAKSTLYLQMNSLRSEDMATYYCARRDYGSKFDNWGQGTLVTVSS
VL: DIVMTQSPSLLSASVGDRVTLTCKGSQNINNFLAWYQQKRGEAPKLLIYKTNSLHTGIPSRFSGSGSGTEYTLTISSLHSEDLATYYCYQYNNGYTFGAGTKLELK
B4: the results for the “Human ABCC4 binding” value in assay [1] and in assay [3] were “+ (Positive (+) is defined as MFI>1000)” and “+ (Positive (+)=MFI>3× background level)”, respectively. For the same molecule, the “Cynomolgus ABCC4 binding” value in assay [2] and in assay [4] was “−” throughout.

B5: C4.987: anti-ABCC4 antibody raised in rats; VH SEQ ID NO: 15, VL SEQ ID NO: 135 (antibody, V domains shown)
VH: EVQLVESGGGLVQPGRSMKLSCAASGFTFSNYYMAWVRQAPTKGLEWVASISTGGGNTHYRDSVKGRFTISRDNAKSTLYLQMDSLRSEETATYYCARGEDRYKGVFAYWGQGTLVTVSS
VL: DVQMTQSPSNLAASPGESVSINCKASKSISKYLAWYQQKPGKANKLLIYSGSTLQSGTPSRFSGSGSGTDFTLTIRNLEPEDFGLYYCQHHNEYPPTFGAGTKLELK
For the molecule B5, the “Human ABCC4 binding” value in assay [1] is listed as “+ (Positive (+) is defined as MFI>1000)”; in assay [3], “+ (Positive (+)=MFI>3× background level)”. The “Cynomolgus ABCC4 binding” value in assay [2] and in assay [4] was “−” in each case.

B6: C4.1000: anti-ABCC4 antibody raised in rats; VH SEQ ID NO: 18, VL SEQ ID NO: 138 (antibody, V domains shown)
VH: QVQLTESGPGLVQPSQTLSLTCTISGFSLTSYGVSWVRQPPGKGLEWIGAIWSGGGTNYDSALKSRLSISRDTSKSQVLLKMNSLQTEDTAMYFCASGDWFAYWGQGTLVTVSS
VL: DIQMTQSPPSLSASLGDKVTITCQASQNINKYIAWFQQKPGKAPRLLIRYTSTLESGTPSRFSGSGSGRDYSFSISTVESEDIASYYCLQYVNLYTFGAGTKLELK
On to B6, for which the “Human ABCC4 binding” value in assay [1] is “+ (Positive (+) is defined as MFI>1000)”; in assay [3], “+ (Positive (+)=MFI>3× background level)”. In addition, the “Cynomolgus ABCC4 binding” value in assay [2] and in assay [4] was “−” throughout.
